The target of one assay is DNA-PKcs (Homo sapiens, UniProt P78527). As to the kind of experiment: GST pull-down from HeLa cell nuclear extract. The class given is binding. The arrangement: incubated with ˜100 μg (10 μl) of HeLa Cell nuclear extract (NE); host or cells: HeLa cell nuclear extract. To be noted: for effect of EtBr on interaction with DNA-PKcs in HeLa nuclear extract: EtBr 0.2 mg/ml; for proteins retrieved from crude HeLa nuclear extract: washed in buffer X containing 150 mM KCl, silver-staining. Here is the method: (§1) GST-Ku70 or GST-Ku80 (0.5-2.0 μg), or deletion derivative thereof, bound to Glutathione agarose beads, was incubated with ˜100 μg (10 μl) of HeLa Cell nuclear extract (NE) and 80 μl of Z′ buffer (25 mM HEPES pH 6.7, 12.5 mM MgCl2, 1 mM dithiothreitol, 0.1% Nonidet P40 (BDH), 20% Glycerol) containing the specified concentration of KCl (for example, 50 mM Z′ contains 50 mM KCl in addition to the other buffer components). Binding reactions were incubated at 4° C. for 3-4 hours and the beads recovered by centrifugation and washed 7 times in 1 ml of Buffer X (25 mM HEPES pH 6.7, 2 mM MgCl2, 1 mM Dithiothreitol, 0.4% Nonidet P40) containing the specified concentration of KCl (for example, 120 mM Buffer X contains 120 mM KCl in addition to the other buffer components). Proteins retained on the beads after washing were eluted in SDS gel-loading buffer and half of the sample subjected to polyacrylamide gel eletrophoresis and silver staining. “Pulldown” assays from purified DNA-PKcs were done as above with 400 ng of purified DNA-PKcs substituted for HeLa NE.
The inventors performed pull-down assays from HeLa cell nuclear extract using GST-Ku70 or GST-Ku80 bound to glutathione agarose beads. Thus, GST-Ku70 or GST-Ku80 protein was purified on glutathione agarose beads as described above, and the beads incubated with crude HeLa cell nuclear extract and washed extensively in buffer X containing 150 mM KCl. The bound proteins were then eluted in the presence of SDS, subjected to SDS-PAGE on a 6% polyacrylamide gel and detected by silver-staining. A control binding reaction was carried out using beads containing only GST.
The inventors investigated whether the observed interactions between DNA-PKcs and the individual Ku subunits were indirect and were being mediated by DNA and/or the Ku heterodimer present in the HeLa nuclear extract. EtBr was used in a final concentration of 0.2 mg/ml in order to address the potential involvement of DNA (EtBr disrupts protein-DNA interactions).

A further assay addresses T1, purified DNA-PKcs (Homo sapiens, UniProt P78527).
T1 construct: The starting material for purification of DNA-PKcs was HeLa NE; host or cells: HeLa nuclear extract; purified in house over Q Sepharose, heparin agarose, phenyl Sepharose and Mono-S
As to the kind of experiment: GST pull-down with purified DNA-PKcs. Type of assay: binding. To be noted: for effect of DNA or EtBr on binding of purified DNA-PKcs: 20 ng/μl sonicated calf thymus DNA or 0.2 mg/ml EtBr; for salt dependence of interaction with homogeneous DNA-PKcs: 50 mM to 150 mM KCl; for interaction with purified DNA-PKcs: 120 mM KCl, silver-staining. The procedure:
as §1
The starting material for purification of DNA-PKcs was HeLa NE obtained from the Computer Cell Culture Centre, Mons, Belgium. All purification steps were performed in buffer D (20 mM HEPES pH 7.6, 2 mm MgCl2, 0.2 mM EDTA, 10% Glycerol) with a specified concentration of KCl (for example 50 mM Buffer D contains 50 mM KCl in addition to the other buffer components). In a representative purification, 35 ml of HeLa NE was cleared by centrifugation and diluted to a final concentration of 50 mM Buffer D, and protease inhibitors added (Boehringer). This was loaded onto a 60 ml column of Q Sepharose (Pharmacia) and eluted in a linear salt gradient of 50-500 mM Buffer D. Under these conditions the majority of DNA-PKcs and Ku were separated into two fractions peaking at approximately 200 mM Buffer D, and 450 mM Buffer D respectively. The DNA-PKcs fraction was adjusted to 100 mM KCl using 0 mM Buffer D (salt concentration was measured by conductivity) and applied to a 10 ml column of heparin agarose (Sigma). The column was developed with a linear gradient of 100-200 mM Buffer D. The peak DNA-PKcs fraction from the heparin column was adjusted to 0.5 M ammonium sulphate and applied to a 2.5 ml column of phenyl Sepharose (Pharmacia) equilibrated in, typically, 300 mM Buffer D containing 0.5 M ammonium sulphate. Under these conditions, 100% of DNA-PKcs is retained by the column, whilst the majority of contaminating Ku flows through (as judged by western blotting using antibodies specific to the Ku subunits). The column was then washed extensively in 0 mM Buffer D containing 0.5 M ammonium sulphate, and subsequently in 0 mM Buffer D containing 0.4 M ammonium sulphate, which removes most of the remaining Ku, before applying a linear gradient of 0.4-0 M ammonium sulphate in 0 mM Buffer D. Peak DNA-PKcs fractions were dialysed into 50 mM Buffer D, applied to a 1 ml Mono-S FPLC column (Pharmacia), and eluted in a linear gradient of 50-500 mM Buffer D. Peak fractions were dialysed into 50 mM Buffer D and stored at −80° C. prior to use. The resulting protein preparation contained a single abundant polypeptide corresponding to DNA-PKcs as judged by Coomassie staining, silver staining and western blotting, with a ladder of smaller DNA-PKcs breakdown products. […] To assess the levels of Ku contamination in the DNA-PKcs preparation we carried out quantitative western blotting using Ku-specific antibodies. In these western blots, an essentially homogeneous preparation of Ku was titrated against known amounts of our DNA-PKcs preparations.
GST-Ku70 or GST-Ku80 containing glutathione agarose beads were incubated with 0.4 μg of purified DNA-PKcs under conditions of 120 mM KCl. The beads were then washed and any proteins retained on the beads were detected by silver-staining.
A control binding reaction using beads containing GST alone was also carried out. […]

Entries after “also recorded” stand apart in the source; their conditions may differ.

T1 sequence (P78527 whole entry): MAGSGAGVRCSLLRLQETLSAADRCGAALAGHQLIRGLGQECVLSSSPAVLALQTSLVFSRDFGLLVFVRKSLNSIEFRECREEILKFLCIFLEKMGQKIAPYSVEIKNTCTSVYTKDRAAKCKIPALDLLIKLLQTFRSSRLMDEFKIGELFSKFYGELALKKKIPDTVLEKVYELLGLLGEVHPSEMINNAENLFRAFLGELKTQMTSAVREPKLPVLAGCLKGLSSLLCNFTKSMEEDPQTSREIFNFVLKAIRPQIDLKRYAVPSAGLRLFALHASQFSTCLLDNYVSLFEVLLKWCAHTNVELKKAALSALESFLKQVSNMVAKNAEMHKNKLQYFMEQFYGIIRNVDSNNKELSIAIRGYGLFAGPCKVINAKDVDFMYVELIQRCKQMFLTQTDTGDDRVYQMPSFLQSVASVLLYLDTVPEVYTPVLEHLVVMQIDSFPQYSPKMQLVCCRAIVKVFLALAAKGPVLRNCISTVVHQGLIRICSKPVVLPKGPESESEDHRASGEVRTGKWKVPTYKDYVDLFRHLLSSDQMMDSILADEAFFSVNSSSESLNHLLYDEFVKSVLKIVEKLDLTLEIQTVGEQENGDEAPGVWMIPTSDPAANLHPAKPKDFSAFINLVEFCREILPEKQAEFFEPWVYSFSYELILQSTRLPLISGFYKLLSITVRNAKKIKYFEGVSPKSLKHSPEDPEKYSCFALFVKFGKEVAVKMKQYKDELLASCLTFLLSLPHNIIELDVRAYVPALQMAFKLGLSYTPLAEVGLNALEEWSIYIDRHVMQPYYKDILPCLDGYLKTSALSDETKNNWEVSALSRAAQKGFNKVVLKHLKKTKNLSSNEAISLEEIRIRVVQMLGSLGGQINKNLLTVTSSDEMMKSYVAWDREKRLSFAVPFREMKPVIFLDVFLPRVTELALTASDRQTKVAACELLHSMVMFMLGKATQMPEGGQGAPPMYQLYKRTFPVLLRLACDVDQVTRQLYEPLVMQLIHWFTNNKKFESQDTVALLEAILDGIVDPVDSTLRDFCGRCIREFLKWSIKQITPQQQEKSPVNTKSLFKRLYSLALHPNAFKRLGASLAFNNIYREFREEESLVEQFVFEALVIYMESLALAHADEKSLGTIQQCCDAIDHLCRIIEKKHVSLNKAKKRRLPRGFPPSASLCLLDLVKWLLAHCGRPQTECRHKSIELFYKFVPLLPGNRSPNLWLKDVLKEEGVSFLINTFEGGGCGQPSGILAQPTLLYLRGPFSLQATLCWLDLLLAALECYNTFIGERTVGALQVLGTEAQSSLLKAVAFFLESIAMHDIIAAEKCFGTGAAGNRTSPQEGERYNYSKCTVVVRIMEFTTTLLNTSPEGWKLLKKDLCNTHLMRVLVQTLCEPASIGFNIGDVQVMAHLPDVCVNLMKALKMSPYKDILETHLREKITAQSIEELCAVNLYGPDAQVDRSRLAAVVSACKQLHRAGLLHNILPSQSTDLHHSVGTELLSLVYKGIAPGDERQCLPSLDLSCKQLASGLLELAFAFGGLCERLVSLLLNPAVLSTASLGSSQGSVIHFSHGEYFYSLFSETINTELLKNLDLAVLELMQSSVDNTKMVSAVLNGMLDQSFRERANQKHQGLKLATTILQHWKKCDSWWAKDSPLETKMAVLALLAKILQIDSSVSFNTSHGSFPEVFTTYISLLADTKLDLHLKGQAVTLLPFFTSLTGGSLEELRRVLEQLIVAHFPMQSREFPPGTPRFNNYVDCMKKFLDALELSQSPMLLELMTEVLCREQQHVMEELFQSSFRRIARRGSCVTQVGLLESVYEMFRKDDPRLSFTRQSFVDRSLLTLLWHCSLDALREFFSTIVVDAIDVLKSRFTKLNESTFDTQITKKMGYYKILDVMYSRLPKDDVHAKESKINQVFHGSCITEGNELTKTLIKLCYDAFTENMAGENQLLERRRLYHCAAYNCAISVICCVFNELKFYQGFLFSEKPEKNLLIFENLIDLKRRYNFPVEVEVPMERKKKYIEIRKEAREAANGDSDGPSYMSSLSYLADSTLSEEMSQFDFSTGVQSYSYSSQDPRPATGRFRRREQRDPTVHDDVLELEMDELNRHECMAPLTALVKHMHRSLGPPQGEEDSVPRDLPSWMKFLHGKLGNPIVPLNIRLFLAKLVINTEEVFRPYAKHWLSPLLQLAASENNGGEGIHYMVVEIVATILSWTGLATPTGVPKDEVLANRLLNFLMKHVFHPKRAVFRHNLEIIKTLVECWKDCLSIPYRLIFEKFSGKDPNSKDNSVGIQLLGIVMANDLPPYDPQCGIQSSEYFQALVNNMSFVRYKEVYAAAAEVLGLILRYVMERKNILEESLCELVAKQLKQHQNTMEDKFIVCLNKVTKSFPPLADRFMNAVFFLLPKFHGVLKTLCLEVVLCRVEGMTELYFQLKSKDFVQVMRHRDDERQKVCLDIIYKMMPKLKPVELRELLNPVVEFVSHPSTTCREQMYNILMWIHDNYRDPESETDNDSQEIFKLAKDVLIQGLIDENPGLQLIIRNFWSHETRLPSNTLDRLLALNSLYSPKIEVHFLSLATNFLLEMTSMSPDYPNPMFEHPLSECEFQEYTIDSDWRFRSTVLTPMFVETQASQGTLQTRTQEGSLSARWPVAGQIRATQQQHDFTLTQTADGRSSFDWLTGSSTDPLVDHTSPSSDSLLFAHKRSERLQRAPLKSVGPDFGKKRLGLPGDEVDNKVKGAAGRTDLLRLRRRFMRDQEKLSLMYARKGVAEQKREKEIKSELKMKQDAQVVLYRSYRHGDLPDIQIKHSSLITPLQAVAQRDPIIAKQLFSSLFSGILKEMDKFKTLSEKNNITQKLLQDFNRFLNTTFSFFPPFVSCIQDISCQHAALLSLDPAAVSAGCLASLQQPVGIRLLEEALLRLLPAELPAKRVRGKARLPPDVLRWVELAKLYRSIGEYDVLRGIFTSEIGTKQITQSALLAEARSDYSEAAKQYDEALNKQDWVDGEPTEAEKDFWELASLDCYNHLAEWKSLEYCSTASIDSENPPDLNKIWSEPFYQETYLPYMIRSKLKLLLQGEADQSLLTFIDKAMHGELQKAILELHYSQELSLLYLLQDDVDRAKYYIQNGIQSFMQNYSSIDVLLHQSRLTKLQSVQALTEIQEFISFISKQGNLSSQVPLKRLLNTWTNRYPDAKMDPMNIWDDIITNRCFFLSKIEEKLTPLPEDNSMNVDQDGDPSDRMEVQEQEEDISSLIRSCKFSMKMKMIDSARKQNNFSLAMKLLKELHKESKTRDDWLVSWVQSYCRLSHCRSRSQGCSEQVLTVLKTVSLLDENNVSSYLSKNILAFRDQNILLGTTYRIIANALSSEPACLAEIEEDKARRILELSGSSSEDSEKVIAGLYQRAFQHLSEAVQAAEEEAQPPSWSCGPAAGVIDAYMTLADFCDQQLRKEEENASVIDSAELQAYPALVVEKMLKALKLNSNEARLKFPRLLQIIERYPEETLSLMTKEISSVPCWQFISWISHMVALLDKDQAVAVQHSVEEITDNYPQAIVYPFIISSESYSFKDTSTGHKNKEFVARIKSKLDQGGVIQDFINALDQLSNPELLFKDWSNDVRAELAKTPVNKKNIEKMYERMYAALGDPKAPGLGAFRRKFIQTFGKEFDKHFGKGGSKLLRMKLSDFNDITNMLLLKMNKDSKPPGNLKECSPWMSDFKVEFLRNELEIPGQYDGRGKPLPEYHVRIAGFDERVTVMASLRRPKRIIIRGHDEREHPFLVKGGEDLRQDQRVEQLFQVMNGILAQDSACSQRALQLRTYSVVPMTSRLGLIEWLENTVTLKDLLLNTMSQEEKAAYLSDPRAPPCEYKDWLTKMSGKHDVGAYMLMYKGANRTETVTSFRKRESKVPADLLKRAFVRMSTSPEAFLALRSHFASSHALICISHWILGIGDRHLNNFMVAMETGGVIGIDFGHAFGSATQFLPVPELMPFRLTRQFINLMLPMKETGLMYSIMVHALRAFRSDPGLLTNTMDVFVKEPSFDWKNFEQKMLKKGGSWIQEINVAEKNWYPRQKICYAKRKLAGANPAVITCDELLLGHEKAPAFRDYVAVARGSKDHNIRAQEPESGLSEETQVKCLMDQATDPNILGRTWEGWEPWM
Sequence of DNA-PKcs (P78527 whole entry): as above

On to “GST-Ku70: full length human Ku70 fused to glutathione S-transferase, expressed in E. coli”, for which, in the assay with DNA-PKcs, the “effect of EtBr on interaction with DNA-PKcs in HeLa nuclear extract” value is “essentially abolished by EtBr treatment” and the “proteins retrieved from crude HeLa nuclear extract” value is listed as “DNA-PKcs is the only protein that is retrieved”. In the assay with purified DNA-PKcs, the “effect of DNA or EtBr on binding of purified DNA-PKcs” value (“effect of DNA or EtBr” below) is given as “no affect”; the “salt dependence of interaction with homogeneous DNA-PKcs” value is “at lower but not at higher ionic strengths, there is an interaction”; the “interaction with purified DNA-PKcs” value is “very little interaction”. Further, in the assay with purified DNA-PKcs (listed as Ku70), the “effect of DNA or EtBr” value is on record as “no stimulation of binding was observed in the presence of DNA”.
For “GST-Ku80: full length human Ku80 fused to glutathione S-transferase, expressed in E. coli”, in the assay with DNA-PKcs, the “effect of EtBr on interaction with DNA-PKcs in HeLa nuclear extract” value is listed as “unaffected by EtBr” and the “proteins retrieved from crude HeLa nuclear extract” value was “DNA-PKcs is the only protein that is retrieved”. For the same substance, in the assay with purified DNA-PKcs, the “effect of DNA or EtBr” value is “not affected by EtBr or by sheared genomic DNA; also recorded: no affect”, the “salt dependence of interaction with homogeneous DNA-PKcs” value is on record as “still easily detectable at 150 mM KCl” and the “interaction with purified DNA-PKcs” value was “interacts efficiently with purified DNA-PKcs”.
